{"source": "patent US20210115113A1", "about": "(CITY OF HOPE, published 2021)", "key": {"[1]": {"molecular_target": "murine 72A1 (m72A1), anti-EBV gp350 neutralizing antibody from hybridoma HB168", "sequence (VH, as listed by the source limits assumed, chain 1 of 2)": "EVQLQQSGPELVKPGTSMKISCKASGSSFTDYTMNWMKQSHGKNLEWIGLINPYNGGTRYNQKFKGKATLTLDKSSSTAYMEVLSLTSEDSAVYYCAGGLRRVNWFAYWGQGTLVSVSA", "sequence (VL, as listed by the source limits assumed, chain 2 of 2)": "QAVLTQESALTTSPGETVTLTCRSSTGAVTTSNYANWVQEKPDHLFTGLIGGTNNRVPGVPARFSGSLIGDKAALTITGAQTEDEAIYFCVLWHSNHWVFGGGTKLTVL", "assay": "ELISA, mAb 10 µg/ml captured on soluble gp350, HRP secondary 1:2,000"}, "[2]": {"molecular_target": "EBV gp350 on EBV-eGFP virions (Epstein-Barr virus) (UniProt P03200)", "assay": "cell-based or functional assay"}, "[3]": {"molecular_target": "humanized 72A1 (h72A1)", "sequence (VH, as listed by the source limits assumed, chain 1 of 2)": "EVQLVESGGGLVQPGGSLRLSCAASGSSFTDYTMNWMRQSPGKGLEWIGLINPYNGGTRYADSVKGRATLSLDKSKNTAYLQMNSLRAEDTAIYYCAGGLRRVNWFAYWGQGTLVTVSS", "sequence (VL, as listed by the source limits assumed, chain 2 of 2)": "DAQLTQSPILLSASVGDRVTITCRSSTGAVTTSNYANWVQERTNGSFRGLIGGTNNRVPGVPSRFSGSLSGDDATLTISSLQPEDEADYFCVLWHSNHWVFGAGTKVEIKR", "assay": "ELISA, mAb 10 µg/ml captured on soluble gp350, HRP secondary 1:2,000"}, "[4]": {"molecular_target": "T1, EBV gp350 expressed on the surface of stably transfected CHO cells (Epstein-Barr virus, UniProt P03200 1-907)", "T1 construct": "also called native gp350; gp350 expressing CHO cells", "T1 sequence": "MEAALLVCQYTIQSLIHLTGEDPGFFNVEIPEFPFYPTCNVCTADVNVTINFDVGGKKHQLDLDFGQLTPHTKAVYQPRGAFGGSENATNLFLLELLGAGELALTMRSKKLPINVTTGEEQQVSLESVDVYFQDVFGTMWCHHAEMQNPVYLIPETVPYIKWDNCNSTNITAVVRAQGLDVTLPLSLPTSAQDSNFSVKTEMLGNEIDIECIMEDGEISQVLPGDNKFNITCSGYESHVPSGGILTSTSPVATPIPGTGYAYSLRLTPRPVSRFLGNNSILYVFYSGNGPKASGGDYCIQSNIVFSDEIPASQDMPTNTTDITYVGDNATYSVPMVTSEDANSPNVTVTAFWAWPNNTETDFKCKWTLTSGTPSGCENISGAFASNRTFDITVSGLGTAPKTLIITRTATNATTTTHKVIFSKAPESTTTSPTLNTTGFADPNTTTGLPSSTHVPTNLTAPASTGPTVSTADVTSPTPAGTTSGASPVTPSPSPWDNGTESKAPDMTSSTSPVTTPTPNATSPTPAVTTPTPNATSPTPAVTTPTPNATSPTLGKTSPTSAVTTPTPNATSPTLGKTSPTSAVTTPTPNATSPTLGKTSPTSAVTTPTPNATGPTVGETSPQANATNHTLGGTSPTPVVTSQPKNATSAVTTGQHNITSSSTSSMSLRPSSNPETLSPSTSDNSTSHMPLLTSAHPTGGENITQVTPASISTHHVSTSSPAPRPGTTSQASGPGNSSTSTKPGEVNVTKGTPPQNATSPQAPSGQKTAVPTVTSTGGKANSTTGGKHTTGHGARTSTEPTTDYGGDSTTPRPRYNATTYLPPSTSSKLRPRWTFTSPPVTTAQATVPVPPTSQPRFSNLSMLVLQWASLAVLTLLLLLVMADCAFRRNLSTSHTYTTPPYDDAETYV", "assay": "cross-competition on gp350-CHO cells (flow), unlabeled 500 µg/ml; competitor: biotinylated h72A1"}, "[5]": {"molecular_target": "T1, EBV gp350 expressed on the surface of …", "assay": "cross-competition on gp350-CHO cells (flow), unlabeled 500 µg/ml; competitor: biotinylated HB20"}, "[6]": {"molecular_target": "T1, EBV gp350 expressed on the surface of …", "assay": "cross-competition on gp350-CHO cells (flow), unlabeled 500 µg/ml; competitor: biotinylated HB17"}, "[7]": {"molecular_target": "T1, EBV gp350 expressed on the surface of …", "assay": "cross-competition on gp350-CHO cells (flow), unlabeled 500 µg/ml; competitor: biotinylated HB1"}, "[8]": {"molecular_target": "T1, EBV gp350 expressed on the surface of …", "assay": "cross-competition on gp350-CHO cells (flow), unlabeled 500 µg/ml; competitor: biotinylated HB11"}, "[9]": {"molecular_target": "T1, EBV gp350 expressed on the surface of …", "assay": "cell competition (flow), unlabeled 250 µg/ml; competitor: biotinylated m72A1 1 µg/ml"}, "[10]": {"molecular_target": "T1, EBV gp350 expressed on the surface of …", "assay": "cell competition (flow), unlabeled 500 µg/ml; competitor: biotinylated m72A1 1 µg/ml"}, "[11]": {"molecular_target": "T1, EBV gp350 expressed on the surface of …", "assay": "cell competition (flow), unlabeled 125 µg/ml; competitor: biotinylated m72A1 1 µg/ml"}, "[12]": {"molecular_target": "T1, EBV gp350 expressed on the surface of …", "assay": "cross-competition on gp350-CHO cells (flow), unlabeled 500 µg/ml; competitor: biotinylated m72A1"}, "[13]": {"molecular_target": "T2, EBV gp350 on EBV-eGFP virions (Epstein-Barr virus, UniProt P03200 1-907)", "T2 sequence": "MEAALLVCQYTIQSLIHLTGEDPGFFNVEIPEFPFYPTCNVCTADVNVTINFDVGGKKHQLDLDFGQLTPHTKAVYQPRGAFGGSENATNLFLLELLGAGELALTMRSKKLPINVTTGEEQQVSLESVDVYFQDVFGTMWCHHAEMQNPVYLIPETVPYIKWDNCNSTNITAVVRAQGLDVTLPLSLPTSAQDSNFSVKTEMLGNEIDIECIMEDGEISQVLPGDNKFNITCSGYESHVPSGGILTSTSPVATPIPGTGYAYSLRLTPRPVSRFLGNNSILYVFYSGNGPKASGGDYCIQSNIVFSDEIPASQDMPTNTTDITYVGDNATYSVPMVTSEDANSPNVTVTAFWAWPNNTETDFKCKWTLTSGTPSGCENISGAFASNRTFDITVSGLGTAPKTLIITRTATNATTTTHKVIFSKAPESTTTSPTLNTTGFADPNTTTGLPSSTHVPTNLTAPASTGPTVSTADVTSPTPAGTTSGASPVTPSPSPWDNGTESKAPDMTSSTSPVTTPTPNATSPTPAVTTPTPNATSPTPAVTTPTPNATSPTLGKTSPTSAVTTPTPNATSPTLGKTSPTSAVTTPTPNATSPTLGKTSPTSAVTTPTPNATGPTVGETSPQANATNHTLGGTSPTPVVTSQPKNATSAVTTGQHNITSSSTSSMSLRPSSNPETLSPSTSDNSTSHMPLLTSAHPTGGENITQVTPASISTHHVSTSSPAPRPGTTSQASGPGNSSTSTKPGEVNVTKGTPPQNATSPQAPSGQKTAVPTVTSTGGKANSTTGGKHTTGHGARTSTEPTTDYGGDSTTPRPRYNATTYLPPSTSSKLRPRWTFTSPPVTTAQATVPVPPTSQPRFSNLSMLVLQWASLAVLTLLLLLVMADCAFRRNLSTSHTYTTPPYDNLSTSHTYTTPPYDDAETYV", "assay": "cell-based or functional assay"}, "[14]": {"molecular_target": "T1, EBV gp350 expressed on the surface of …", "assay": "cell competition (flow), unlabeled 67.5 µg/ml; competitor: biotinylated m72A1 1 µg/ml"}, "[15]": {"molecular_target": "T1, EBV gp350 expressed on the surface of …", "assay": "cross-competition on gp350-CHO cells (flow), unlabeled 500 µg/ml; competitor: biotinylated 54A1"}, "[16]": {"molecular_target": "T1, EBV gp350 expressed on the surface of …", "assay": "cross-competition on gp350-CHO cells (flow), unlabeled 500 µg/ml; competitor: biotinylated HB5"}}, "data": [{"molecule": "HRP-conjugated goat anti-mouse IgG (antibody)", "values": [{"measurement": "fold ELISA signal above the background (1× PBS)", "setting": "[1]", "result": 28, "unit": "fold"}, {"measurement": "fold ELISA signal as compared to goat anti-human IgG", "setting": "[1]", "result": 9, "unit": "fold"}]}, {"molecule": "murine 72A1 (m72A1), anti-EBV gp350 neutralizing antibody from hybridoma HB168", "values": [{"measurement": "% blocking of EBV-eGFP infection of Raji cells at 12.5 µg/ml", "setting": "[2]", "result": 93, "unit": "%"}, {"measurement": "% neutralization of EBV-eGFP infection of Raji cells, 12.5-100 µg/ml", "setting": "[2]", "result": "35 to 80", "unit": "%"}]}, {"molecule": "HRP-conjugated goat anti-human IgG (antibody)", "values": [{"measurement": "fold ELISA signal over the background", "setting": "[3]", "result": 2100, "unit": "fold"}]}, {"molecule": "HB20 (antibody, V domains shown) VH: ELVKPGASVKLSCKASGYTFTSYWIQWVKQRPGQGLEWIGEINPTNGHTNYNEKFKTKATLTVDKSSSTAYMRLSSLTSEDSAVYYCARNLYYYGRPDYWGQGTSVTVSS VL: SSLSASLGDRVTISCRASQDIGNYLNWYQQKPDGTVKLLIYYTSRLHSGVPSRFSGSGSGTDYSLTISNLEQEDIATYFCQQGNALPPTFGGGTKLEIKR", "values": [{"measurement": "% inhibition of biotinylated nAbs", "setting": "[4]", "result": 96, "unit": "%"}, {"measurement": "% inhibition of biotinylated nAbs", "setting": "[5]", "result": 59, "unit": "%"}, {"measurement": "% inhibition of biotinylated nAbs", "setting": "[6]", "result": 13, "unit": "%"}, {"measurement": "% inhibition of biotinylated nAbs", "setting": "[7]", "result": 88, "unit": "%"}, {"measurement": "% inhibition of biotinylated nAbs", "setting": "[8]", "result": 89, "unit": "%"}, {"measurement": "% inhibition of biotinylated nAbs", "setting": "[9]", "result": 91, "unit": "%"}, {"measurement": "% inhibition of biotinylated nAbs", "setting": "[10]", "result": 96, "unit": "%"}, {"measurement": "% inhibition of biotinylated nAbs", "setting": "[11]", "result": 87, "unit": "%"}, {"measurement": "% inhibition of biotinylated nAbs", "setting": "[12]", "result": 98, "unit": "%"}, {"measurement": "% neutralization of EBV-eGFP infection of Raji cells at 100 µg/ml", "setting": "[13]", "result": 90, "unit": "%"}, {"measurement": "% inhibition of biotinylated nAbs", "setting": "[14]", "result": 89, "unit": "%"}, {"measurement": "% inhibition of biotinylated nAbs", "setting": "[15]", "result": 0, "unit": "%"}, {"measurement": "% inhibition of biotinylated nAbs", "setting": "[16]", "result": 97, "unit": "%"}]}]}
